{
  "source": "the DeepSol protein solubility set",
  "data": [
    {"assay": "soluble on expression in E. coli; label from the status in PepcDB or PDB records", "values": [
      {"sequence": "MKHHHHHHMTFPGDTAVLVLAAGPGTRMRSDTPKVLHTLAGRSMLSHVLHAIAKLAPQRLIVVLGHDHQRIAPLVGELADTLGRTIDVALQDRPLGTGHAVLCGLSALPDDYAGNVVVTSGDTPLLDADTLADLIATHRAVSAAVTVLTTTLDDPFGYGRILRTQDHEVMAIVEQTDATPSQREIREVNAGVYAFDIAALRSALSRLSSNNAQQELYLTDVIAILRSDGQTVHASHVDDSALVAGVNNRVQLAELASELNRRVVAAHQLAGVTVVDPATTWIDVDVTIGRDTVIHPGTQLLGRTQIGGRCVVGPDTTLTDVAVGDGASVVRTHGSSSSIGDGAAVGPFTYLRPGTALGADGKLGAFVEVKNSTIGTGTKVPHLTYVGDADIGEYSNIGASSVFVNYDGTSKRRTTVGSHVRTGSDTMFVAPVTIGDGAYTGAGTVVREDVPPGALAVSAGPQRNIENWVQRKRPGSPAAQASKRASEMACQQPTQPPDADQTP", "soluble on expression in E. coli": "soluble"},
      {"sequence": "MKHLMKMWNPWWIERKVPASKKRISRPETLETILKLLDIREVICITGVRRCGKSTIMYQAIDHLIGKGVEPENILYFNLDEPFEDKSIGLLDRIFGEYIELHVPKGRKYIFLDEIQNVKDWEQWVKKFYDLHGEDIKFVLTGSNSSMLSDQLSILLTGRMITQHVFPLSFKEYLDFESFELKDPDIQRNEILHYFNKYLFKGGFPEVVLENDMDINHLRLTEYFNSILLRDIVVGRNIRESAKLIELANYSLSNVSTLLSYSKISNATGLSVNSLKEYLLFLEQAYLIYQLNFFSYSVKDSISIKMPKKVYCIDNGLRNSAAFTFSADEGRLAENLAFVELKRRKVEFFYWKEKREVDFVIKGIDGALTGINCTCTDHIRQGEINALLELKEQFGEKVSRLILLTKNLEKKENDISYIPLWKWVLGTRLSK", "soluble on expression in E. coli": "not soluble"},
      {"sequence": "MKHYTVAINGLPQEFEGFTILHLTDLHAKKYGDQQDKLIRLINRQNFDMVAMTGDFIDKDNPDLEPTLELIQGLAAKPIFFVPGNHEWRYDFSIKSSLEEHGVKILDNKNAELARGDARLWIAGVDDPYLHRDKLEEALHGIADAQPKLLLAHAPNIFKPAAESGVELVLVGHTHGGQVRLPLIGAIVAPGQGLFPQYDYGHFTAGSTNMIVNGGLGESTLPLRFCSRPEIVLVKLVSAPLEHHHHHH", "soluble on expression in E. coli": "not soluble"},
      {"sequence": "MKIAALYDIHGNYPALKEVLKQVKKLSPDLVVLGGDLIAGPMPLETLSLLKHVSTTFKTVGIMGNNDQDIVDIYAKKRVGLSRKATEQLTWIANQLSYKQVSFLRNLLPSISIGNYFFCHAVKNDNTTVFSPQQNKAYIETLFKGVQESYIICGHTHIQFELSLPNKKIINAGSIGMPFSNQFGAQWLWLDDNRIEYKRTIFNQQAAIQLISQTEYPFKNEFIANNLRSTISLSQGYSILNTLIRAQNAQHDLSLEHHHHHH", "soluble on expression in E. coli": "soluble"},
      {"sequence": "MKIAALYDIHGNYPALKEVLKQVKKLSPDLVVLGGDLIAGPMPLETLSLLKHVSTTFKTVGIMGNNDQDIVDIYAKKRVGLSRKATEQLTWIANQLSYKQVSFLRNLLPSISIGNYFFCHAVKNDNTTVFSPQQNKAYIETLFKGVQESYIICGHTHIQFELSLPNKKIINAGSIGMPFSNQFGAQWLWLDDNRIEYKRTIFNQQAAIQLISQTEYPFKNEFLEHHHHHH", "soluble on expression in E. coli": "not soluble"},
      {"sequence": "MKIAIIGLGLMGGSLGLCLKENKLISCVYGMDLSKENEKDALQLGLIHELIEFKDLALCDMIFVATPVNAIIEILQKLVDLPSNVTIIELGSTKRKIIESLPKNLIKQTLFAHPMTGTENSGPKAAFKELYKDAVCVLCDSEIADDLHQKRAVEIFSHLGMKIVFMDSKAHDHHAAIISHLPHVISFSLANFVMKEEDKRNIVHLAGGSFKGMSRIAKSSPQMWESIFLQNKDNLLSSIDFFQQELERCKQMIQLDKNDELREWMKQANTLREILMGHHHHHHSH", "soluble on expression in E. coli": "soluble"},
      {"sequence": "MKIAIVGSGNGAVTAAVDMVSKGHDVKLYCRNQSISKFQNAIEKGGFDFNNEGDERFVKFTDISDDMEYVLKDAEIVQVIIPSSYIEYYADVMAEHVTDNQLIFFNMAAAMGSIRFMNVLEDRHIETKPQLAEANTLTYGTRVDFENAAVDLSLNVRRIFFSTYDRSCLNDCYDKVSSIYDHLVKEESLIKTNLENGNPEVHPGPTLLNVGRIDYAGEFALYKEGITKHTVRLLHAIELERLNLGRRLGFELSTAKESRIERGYLERDKEDEPLNRLFNTSPVFSQIPGPNHVESRYLTEDIAYGLVLWSSLGRVIDVPTPNIDAVIVIASTILERDFFEEGLTVEEIGLDKLDLEKYLK", "soluble on expression in E. coli": "not soluble"},
      {"sequence": "MKIALINENSQASKNHIIYDSLKEATDKKGYQLFNYGMRGEEGESQLTYVQNGLMAAILLNTKAVDFVVTGCGTGVGAMLALNSFPGVVCGLAVDPTDAYLYSQINGGNALSIPYAKGFGWGAELTLKLMFERLFAEEMGGGYPRERVIPEQRNARILNEVKQITHNDLMTILKIIDQDFLKDTISGKYFQEYFFENCQDDEVAAYLKEVLAK", "soluble on expression in E. coli": "soluble"},
      {"sequence": "MKIDASRRGILTGCWRKASNGIRPPWSGDESHFLTHCTRCDACINACENNILQRGTGGYPSVNFKNNECSFCYACAQACPESLFSPRHTRAWDLQFTIGDACLAYQSVECRRCQDSCEPMAIIFRPTLSGIYQAQLNSQLCNGCGACAASCPVSAITAEYLHAH", "soluble on expression in E. coli": "not soluble"},
      {"sequence": "MKIDITDYNHADEILNPQLWKEIEETLLKMPLHVKASDQASKVGSLIFDPVGTNQYIKDELVPKHWKNNIPIPKRFDFLGTDIDFGKRDTLVEVQFSNYPFLLNNTVRSELFHKSNMDIDEEGMKVAIIITKGHMFPASNSSLYYEQAQNQLNSLAEYNVFDVPIRLVGLIEDFETDIDIVSTTYADKRYSRTITKRDTVKGKVIDTNTPNTRRRKRGTIVTY", "soluble on expression in E. coli": "soluble"},
      {"sequence": "MKIDYLTLFPEMFDGVLNHSIMKRAQENNKLQINTVNFRDYAINKHNQVDDYPYGGGQGMVLKPEPVFNAMEDLDVTEQTRVILMCPQGEPFSHQKAVELSKADHIVFICGHYEGYDERIRTHLVTDEISMGDYVLTGGELPAMTMTDAIVRLIPGVLGNEQSHQDDSFSDGLLEFPQYTRPREFKGLTVPDVLLSGNHANIDAWRHEQKLIRTYNKRPDLIEKYPLTNEDKQILERYKIGLKKG", "soluble on expression in E. coli": "not soluble"},
      {"sequence": "MKIEVWSDFVCPFCYMGKRRLEIALNEFEYKTDVEISFKSFELDPSAKKEYSENIHELIAKKYKISVEQAKASNDQIVLQAEAIGLNYNFNKLIPTNTFDAHRLSQYAKTKGKMNELSEKIFKAYFVDSLNISDYKVLADLAEEVGISRDESLRILESNQYNEEVREDEKNASKLGIDAVPYFVFDDKYAVSGAQPAEVFLEALYKIDKE", "soluble on expression in E. coli": "not soluble"},
      {"sequence": "MKIFFITSNPGKVREVANFLGTFGIEIVQLKHEYPEIQAEKLEDVVDFGISWLKGKVPQPFMIEDSGLFIESLKGFPGVYSSYVYRTIGLEGILKLMEGAEDRRAYFKSVIGFYIDGKAYKFSGVTWGRISNEKRGTHGFGYDPIFIPEGSEKTFAEMTIEEKNALSHRGKALKAFFEWLKVNLKY", "soluble on expression in E. coli": "soluble"},
      {"sequence": "MKIGIIGAGFVARAIAKLALQNGHQVMLSNSRDPQSLFSLRPMIGCDIGTATQAALFGDIIVIAVPFTAIDKLPEQALQGKSVIDAVNYYTERDGKVAALDTRSTTTSELLAGYLPGAKITKAFNAITMTQLERDGLPAGSAHRRALPLAGDHEQEKTIVAELYDAFGFDVVDAGKLSEGWRFERNMPSYCVRMTKAELTTALALSSRLEHHHHHH", "soluble on expression in E. coli": "soluble"},
      {"sequence": "MKIIITGEPGVGKTTLVKKIVERLGKRAIGFWTEEVRDPETKKRTGFRIITTEGKKKIFSSKFFTSKKLVGSYGVNVQYFEELAIPILERAYREAKKDRRKVIIIDEIGKMELFSKKFRDLVRQIMHDPNVNVVATIPIRDVHPLVKEIRRLPGAVLIELTPENRDVILEDILSLLER", "soluble on expression in E. coli": "soluble"},
      {"sequence": "MKIINLQFPNKYSAKKKEFVLAMGYFDGLHLGHRAVIQQAKRIADKQHLKLALLTYSQSPAGFYVNDPVLKVPILPFRQKMQMLEKLGVDTIFLIDYNLTFGSQSPEDYVDNYLAKLGASVVVAGFDHTYGSLKDKADMKHLPRYANGRFEVYTVRECSDYFGKISSTRIRRLLSEGDLQAVNELLGYQFQTVGFVVHGNQIGRRIGFPTANQALEEKQLLPKSGVYAVRTKIVTGPLAGRSFNGMASIGRNETFGSDNPITIEINLFDFSADVYDEEIIVYWISFLREQVKYANAEALIDQLKQDRIDSLDLLKEIPKSKNYS", "soluble on expression in E. coli": "not soluble"}
    ]}
  ]
}
